Values of other authors as cited in paper PMC3061301.

Molecular target: PTP-BL (Mus musculus) (UniProt Q64512)
Experiment: surface plasmon resonance

Chain of UniProt Q64512 (Q64512 whole entry): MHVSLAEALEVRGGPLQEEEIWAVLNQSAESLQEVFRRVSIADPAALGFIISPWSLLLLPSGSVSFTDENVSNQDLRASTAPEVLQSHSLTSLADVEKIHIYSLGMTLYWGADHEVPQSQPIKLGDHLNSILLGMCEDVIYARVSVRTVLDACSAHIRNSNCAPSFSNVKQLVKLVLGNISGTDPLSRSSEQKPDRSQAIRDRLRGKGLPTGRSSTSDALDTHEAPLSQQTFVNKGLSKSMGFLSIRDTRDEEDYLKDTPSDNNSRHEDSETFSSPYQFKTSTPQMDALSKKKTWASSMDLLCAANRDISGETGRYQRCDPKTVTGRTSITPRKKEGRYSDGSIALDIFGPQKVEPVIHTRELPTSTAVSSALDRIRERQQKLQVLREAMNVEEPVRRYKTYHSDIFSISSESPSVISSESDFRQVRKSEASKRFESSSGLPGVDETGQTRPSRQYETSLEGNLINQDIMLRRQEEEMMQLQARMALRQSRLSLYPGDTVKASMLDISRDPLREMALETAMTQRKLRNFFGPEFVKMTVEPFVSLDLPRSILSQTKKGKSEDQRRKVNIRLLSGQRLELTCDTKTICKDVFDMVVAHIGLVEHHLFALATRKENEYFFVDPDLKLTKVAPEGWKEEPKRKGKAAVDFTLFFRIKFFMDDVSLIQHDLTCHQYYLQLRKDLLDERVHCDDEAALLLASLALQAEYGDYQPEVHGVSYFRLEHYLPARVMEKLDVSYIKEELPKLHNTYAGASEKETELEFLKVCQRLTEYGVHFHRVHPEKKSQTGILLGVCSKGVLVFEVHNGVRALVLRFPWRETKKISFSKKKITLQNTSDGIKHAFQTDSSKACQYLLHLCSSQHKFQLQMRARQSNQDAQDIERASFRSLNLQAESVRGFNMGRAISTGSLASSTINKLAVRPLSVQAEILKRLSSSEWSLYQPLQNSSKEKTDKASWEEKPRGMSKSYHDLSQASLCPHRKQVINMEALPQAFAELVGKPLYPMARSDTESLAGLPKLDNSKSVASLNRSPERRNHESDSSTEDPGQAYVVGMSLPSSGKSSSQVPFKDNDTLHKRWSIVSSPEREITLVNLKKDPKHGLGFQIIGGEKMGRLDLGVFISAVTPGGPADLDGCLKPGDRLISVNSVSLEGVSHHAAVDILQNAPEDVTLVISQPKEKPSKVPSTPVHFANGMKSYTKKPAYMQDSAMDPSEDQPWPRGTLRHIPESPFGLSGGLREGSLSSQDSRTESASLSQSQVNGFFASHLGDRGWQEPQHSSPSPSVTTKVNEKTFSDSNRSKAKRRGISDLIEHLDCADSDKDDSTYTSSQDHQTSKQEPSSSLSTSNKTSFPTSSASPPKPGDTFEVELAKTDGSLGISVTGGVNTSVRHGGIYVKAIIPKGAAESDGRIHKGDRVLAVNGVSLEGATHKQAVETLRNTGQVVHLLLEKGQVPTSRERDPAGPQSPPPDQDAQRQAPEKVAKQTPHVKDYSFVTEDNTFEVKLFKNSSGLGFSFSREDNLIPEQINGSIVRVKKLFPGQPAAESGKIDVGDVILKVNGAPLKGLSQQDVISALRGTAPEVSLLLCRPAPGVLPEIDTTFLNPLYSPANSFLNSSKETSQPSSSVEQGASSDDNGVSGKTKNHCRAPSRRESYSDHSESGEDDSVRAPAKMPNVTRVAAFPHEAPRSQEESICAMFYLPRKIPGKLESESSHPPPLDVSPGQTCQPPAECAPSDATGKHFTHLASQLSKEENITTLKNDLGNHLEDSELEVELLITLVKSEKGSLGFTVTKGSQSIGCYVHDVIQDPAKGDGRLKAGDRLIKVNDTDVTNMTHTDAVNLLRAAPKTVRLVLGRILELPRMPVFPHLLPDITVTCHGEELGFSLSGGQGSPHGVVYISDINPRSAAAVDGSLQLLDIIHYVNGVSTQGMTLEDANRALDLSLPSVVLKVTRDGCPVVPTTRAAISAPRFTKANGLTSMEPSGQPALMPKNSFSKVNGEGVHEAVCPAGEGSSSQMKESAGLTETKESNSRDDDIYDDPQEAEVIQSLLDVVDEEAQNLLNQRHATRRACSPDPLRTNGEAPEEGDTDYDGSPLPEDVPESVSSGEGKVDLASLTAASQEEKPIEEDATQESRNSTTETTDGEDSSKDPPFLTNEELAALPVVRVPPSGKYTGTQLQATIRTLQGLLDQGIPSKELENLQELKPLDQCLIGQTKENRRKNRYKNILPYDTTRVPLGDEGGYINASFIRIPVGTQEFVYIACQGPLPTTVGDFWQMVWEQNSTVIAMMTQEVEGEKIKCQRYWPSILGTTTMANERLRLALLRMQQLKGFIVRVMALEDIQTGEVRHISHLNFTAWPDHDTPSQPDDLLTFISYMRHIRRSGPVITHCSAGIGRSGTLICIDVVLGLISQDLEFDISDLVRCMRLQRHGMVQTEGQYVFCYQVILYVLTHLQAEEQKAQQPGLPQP

For “APC C-terminal 19 amino acids (from UniProt P25054)”, the Kd is listed as 8 nM.
